Experimental data taken from the nanobody polyreactivity screen of Harvey et al. (2022).

experiment: yeast display, Sf9 membrane polyspecificity reagent, FACS + sequencing; frameworks hold sequencing errors
Procedure, shortened: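 Sorting gates, low and high (top ~1%), were placed on anti-HA fluorescence to track expression and on streptavidin fluorescence to track reagent binding. A clone's polyreactivity label is taken from the gate it came out of. The reagent was 10% biotinylated, detergent-solubilized Sf9 membrane, applied for 1 hour at 4 °C to galactose-induced yeast display cells.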

Row | Sequence | polyreactivity (PSR sort gate)
1 | QVQLVESGGGLVHAGGSLRLSCAASGSNFGYNAMGWYIQAPGKERELVAAITSIGGNTYADSVKGRFTISRDNAKYTVYLQMNSLKPEDTAVYYCAAERNTDPIQVVYEFDYWGQGSQVTVSS | low polyreactivity
2 | QVQLVESGGGLVHAGGSLRLSCAASGSNFRYNAMGWYRQAPGKEREFYADSVKGRFTISRDNAKKTVYLQMNSLKPEDTAVYYCNATWYLWYWHDMDYWGQGTQGTVSS | low polyreactivity
3 | QVQLVESGGGLVHAGGSLRLSCAASGSNSNYYGMGWYRQAPGKERELVAAITWGGGRTNYADSVKGRFTISRDNAKNTVYLQMNSLKPEDTAVYYCAKVSVTHRYGAGGDYWGQGTQVTVSS | low polyreactivity
4 | QVQLVESGGGLVHAGGSLRLSCAASGSTFGYYAMGWYRQAPGTERELVADINWNGGSTNYADSVKGRFTISRDTEKKTVYLQMNSLKPEDTAVYFCAKGLRPYRFYYWGQGTQVTVSS | high polyreactivity
5 | QVQLVESGGGLVHAGGSLRLSCAASGSTFIYNAMGWDRQAPGKERELVAAITWNGGSTYYADSVKGRFTLSRDIAKNTVYLQMISLNPEDTAVYYCAVDKGSQPHYDYWGQVTQVTVSS | low polyreactivity
6 | QVQLVESGGGLVHAGGSLRLSCAASGSTFSRNTMGWYRQAPGKERELVAAITKSAVSTYNADSVKGRFTISRDNAKNTVYLQMNSLKPEDTAVYYCAKVYRTSTSKAYDYWGQGTQVTVSS | high polyreactivity
7 | QVQLVESGGGLVHAGGSLRLSCAASGSTFSYNAMGWYRQAHGKERELVAAITSSGSSTYYADSVKGRFTISRYNAKNTVYLQMNSLKPEDTAVYYCKAEVLFVAGQVQRNSGDYWGQGTQVSVSS | low polyreactivity
8 | QVQLVESGGGLVHAGGSLRLSCAASGSTFTPNAMGWYRQAPRKERDLVAAIRGLNGRTYYADSVKGRITISRDNAKNTVYLQMNSLKPEDTAVYYCAAGGYSNYFAWHDYWGQCTQVTVSS | low polyreactivity
9 | QVQLVESGGGLVHAGGSLRLSCAASGSTFYENAMGWYRQAPGKERELVAAITWSGGRTYYADSVKGRFTISRDNAKNTVYLQMNSLKPEDTAVYYCAAGLFVGFDYWGQGTQVTVSS | high polyreactivity
10 | QVQLVESGGGLVHAGGSLRLSCAASGSTFYSNTMGWYRQAPGKERELVAAIDTSGDSTNYADSVKGRFTISRDNAKNTVYLQMNSLKPEDTAVYYCNRRVSDRAFPFNYWGQGTQVTVSS | low polyreactivity
11 | QVQLVESGGGLVHAGGSLRLSCAASGSTLKYYAMGWYRQAPGKERELVAAITSGSSTYYADSVKGRFTISRDNAKNTVYLQMNSLKPEDTAVYYCAADYYTGYGRYYSTRFYYWGQGTQVTVSS | high polyreactivity
12 | QVQLVESGGGLVHAGGSLRLSCAASGSTYIFYAMGWYRQAPGKERELVPAITGGGSTYYADSVKGRFTISRDNAKNTVYLQMNSLKPEDTAVFYCARAEPYYSKSFSLGGYGYWGQGTKVTVSS | low polyreactivity
13 | QVQLVESGGGLVHAGGSLRLSCAAYGFIFRYYAMGRYRQAPGKEMELVATISSGGRTYYADSVKGRFTISRDNAKNTVYLQMNSLKPEDTAVYYCAKDYSWASYNHDYWGQGTQVTVSS | low polyreactivity
14 | QVQLVESGGGLVHAGGSLRLSCAAYGSTFVRNAMGCYRQAPGKERELVAAITSRGGSTYYADSVKGRFTISRDNAKNTVYLQMNSLKPEDTAVYYCAARFGVKRGQYDYWGQGTQVTVSS | high polyreactivity
15 | QVQLVESGGGLVHAGGSLRLSCASSGRIFQYNTMGWYRQAPGKERELVAGISSGGSTNYADSVKGRFTISRDNAKNTVYLQMNSLKPEDTAVYYCAARAKRYNVRFDYWGQGTQVTVSS | high polyreactivity
16 | QVQLVESGGGLVHAGGSLRLSCASSGSTFRPYAMGCYRQAPGKERELVAAIRKIGGRTYYADSVKGRFTISRDNANNTVYLQMNSLKPEDTAVYNCNKRIGGGVHAYNYWGQGTQVSVSS | low polyreactivity

Row | Sequence | polyreactivity (PSR sort gate)
17 | QVQLVESGGGLVHAGGSLRLSCATSGRTFKYNAMGWYRQAPGKEREFVAAISSRGGSTTYYADSVTGRFTISRDNAKNTVYLQMKSLKPEDTAVYYCADRTPPPASRSRVYYWGQCTQVTVSS | high polyreactivity
18 | QVQLVESGGGLVHAGGSLRLSCDASGLKFRAYDMGRYRQAPGKERELVAAITSSSGSTYYADSVKGRFTISRDNAKNTVYLQMNSLKPEDTSVYYCNAYSTFGWYDYWGQGTQVTVSS | low polyreactivity
19 | QVQLVESGGGLVHAGGSLRLSCSASGIIFYRYAMGWYRQAPGKERELVAAITWSGVSTSYADSVKGRFTISRDNAKNTVYLKMNSLKPEDTAVYYCNIDPGTLFGDMDSWGQGNQVTVSS | low polyreactivity
20 | QVQLVESGGGLVHAGGSLRLSCSASGRTFRHYAMGWYRQAPGKEREMVAVISWRGTGTYYADSVKGRFTISRDNAKNTVYLQMNSLKPEDTAVYYCATVWGLGYRMNYWGQGTQVTVSS | high polyreactivity
21 | QVQLVESGGGLVHAGGSLRLSCSASGSILKSYAMGWYRQAPGKERDLVAAITYRDGSTYYADSVKGRFTISRDTAKNTVYLQMISLKPEDTAVYYCASEPYWWNVFYPGYNYWGQGNQVTVSS | high polyreactivity
22 | QVQLVESGGGLVHAGGSLSLICAASGITFDVNAMGWYRQAPGKERELVAAITAGGNTYYADSVKGRFTISRDNAKNTVYLQMNSLKPEDTAVYYCAAVSTSLYWAGYDYWGQGTKVTVSS | low polyreactivity
23 | QVQLVESGGGLVHAGRSLRLSCAASGFIFVRNAMGWYRQAPGKERELVAAITRSGGSTSYADSVKGRFTISRDNEKNTVYLQMNSLKPEDTAVYYCAAQYGYWGQGTQVTVSS | high polyreactivity
24 | QVQLVESGGGLVHEGGSLRLSCAASGRLFKSYAMGWYRQAPVKERELVAAISRSGGRTYYADSVKGRFTISRDNAKNTVYLQMNSLKPEDTAVYYCAATTFVAPYWGQGTQVTVSS | low polyreactivity
25 | QVQLVESGGGLVKAGCSLRLSCAASGFTFGRYAMGWYRQAPGKERELVAAISRTGGRTYYADSVKGRFTISRDNAKNTVYLQMNSLKPEDTAVYYCAADKGGTYFNGDSWGQGTQVTVSS | high polyreactivity
26 | QVQLVESGGGLVKAGGILRLSCAASGSIFGRYVMGWYRPAPGKEREVVAAINRSGGRTYYADSVKGRFSISRDNAKYTVYLQMNSLKPEDTAVYYCATYTGSSASKEVPYDYWGQGTQVTVSS | high polyreactivity
27 | QVQLVESGGGLVKAGGSHRLSLASYGTFRYYAMGWYRQAPGKERELDAGISRSGGSTYYEDSVKGRFTISRDNAKNTVYLQMNSQNPEDTEVYDCAAGNYYYWYKTKYYHYDYWGQGTQVTVSS | high polyreactivity
28 | QVQLVESGGGLVKAGGSLGLSCAASGRTLRYYAMGWYRQAPRKERELVASISIGGSTYYADSVKGRFTISRDNAKNTVYLQMNSLKPEDTAVYYCATDYSNSGYGYWGQCTQVTVSS | low polyreactivity
29 | QVQLVESGGGLVKAGGSLRFSCAASVITFVWYAMGWYRQAPGKERDLVASIDSSVSTNYADSVKGRFTISRDNEKNTVYFQMNSLKPEDTAVYYCAAYFFFGQVGGMEYWGQGTQVTVSS | low polyreactivity
30 | QVQLVESGGGLVKAGGSLRLICAASGFTFRAYAMGWYRQAPGTERELVAAINRRGGRTYYADSVKGRFTISRDNAKNTVYLQMNSLKPEDTAVYYCAAVKSGPSKGVGPPATAYDYWGQGTQVTVSS | high polyreactivity
31 | QVQLVESGGGLVKAGGSLRLSCAASAWYAMGWYRQAPGKEREFVAAITFSGSSTYYADSVKGRFTISRDNAKNTVYLQMNSLKPEVTAVYYCNADWWEWGQGTQVTVSS | low polyreactivity
32 | QVQLVESGGGLVKAGGSLRLSCAASGFICVDYDRGGSRQAPGQERELVAAINWSGGSTDYADSVKGRFTISRDNAKNTVYLQMNSLKPEDTAVYYCGAEGQDCRFYWGLGTQVTVSS | low polyreactivity
